T1: Activin B (UniProt P09529 293-407)
T1 sequence (looked up): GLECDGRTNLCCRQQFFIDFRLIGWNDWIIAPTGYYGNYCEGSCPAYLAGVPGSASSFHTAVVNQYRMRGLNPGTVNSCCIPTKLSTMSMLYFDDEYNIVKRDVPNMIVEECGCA

T2: Activin A (UniProt P08476 311-426)
T2 construct: also called ActA
T2 sequence (looked up): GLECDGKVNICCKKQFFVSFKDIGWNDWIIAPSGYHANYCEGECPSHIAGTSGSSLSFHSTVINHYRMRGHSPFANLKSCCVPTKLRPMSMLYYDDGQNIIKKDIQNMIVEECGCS

T3: Growth and Differentiation Factor-8 (GDF8) (UniProt O14793 267-375)
T3 construct: also called myostatin
T3 sequence (looked up): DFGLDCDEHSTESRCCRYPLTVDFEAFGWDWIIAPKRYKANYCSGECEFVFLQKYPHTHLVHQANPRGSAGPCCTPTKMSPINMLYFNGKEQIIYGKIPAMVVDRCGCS

B1: ActRIIB(L79 25-131)-hFc (Fc fusion)
chain: ETRECIYYNANWELERTNQSGLERCEGEQDKRLHCYASWRNSSGTIELVKKGCWLDDFNCYDRQECVATEENPQVYFCCCEGNFCNERFTHLPEAGGPEVTYEPPPT
notes: also called ActRIIB(25-131)-hFc; not shown: linker (if any) and human Fc (hFc)
B2: ActRIIB(L79D 20-134)-hFc (Fc fusion)
chain: GRGEAETRECIYYNANWELERTNQSGLERCEGEQDKRLHCYASWRNSSGTIELVKKGCWDDDFNCYDRQECVATEENPQVYFCCCEGNFCNERFTHLPEAGGPEVTYEPPPTAPTGGGTHTCPPCPAPELLGGPSVFLFPPKPKDTLMISRTPEVTCVVVDVSHEDPEVKFNWYVDGVEVHNAKTKPREEQYNSTYRVVSVLTVLHQDWLNGKEYKCKVSNKALPVPIEKTISKAKGQPREPQVYTLPPSREEMTKNQVSLTCLVKGFYPSDIAVEWESNGQPENNYKTTPPVLDSDGSFFLYSKLTVDKSRWQQGNVFSCSVMHEALHNHYTQKSLSLSPGK
notes: also called GDF Trap
B3: Soluble ActRIIB-Fc +15tail (Fc fusion, UniProt Q13705 19-134, looked up)
chain: SGRGEAETRECIYYNANWELERTNQSGLERCEGEQDKRLHCYASWANSSGTIELVKKGCWLDDFNCYDRQECVATEENPQVYFCCCEGNFCNERFTHLPEAGGPEVTYEPPPTAPT
notes: whole entry named; not shown: linker (if any) and Fc
B4: Soluble ActRIIB-Fc WT (64R) (Fc fusion)
chain: GRGEAETRECIYYNANWELERTNQSGLERCEGEQDKRLHCYASWRNSSGTIELVKKGCWLDDFNCYDRQECVATEENPQVYFCCCEGNFCNERFTHLPEA
notes: as for B3
B5: ActRIIB(20-134)-hFc (Fc fusion)
chain: GRGEAETRECIYYNANWELERTNQSGLERCEGEQDKRLHCYASWRNSSGTIELVKKGCWLDDFNCYDRQECVATEENPQVYFCCCEGNFCNERFTHLPEAGGPEVTYEPPPTAPT
notes: not shown: linker (if any) and human Fc (hFc)
B6: Growth and Differentiation Factor-11 (GDF11) (ligand, UniProt O95390 299-407, looked up)
chain: NLGLDCDEHSSESRCCRYPLTVDFEAFGWDWIIAPKRYKANYCSGQCEYMFMQKYPHTHLVQQANPRGSAGPCCTPTKMSPINMLYFNDKQQIIYGKIPGMVVDRCGCS
notes: also called BMP11

Legend:
Activin B = molecular target: T1, Activin B; test: Biacore; steady-state affinity fit
Description: (§1) The affinity of GDF Traps and other ActRIIB-hFc proteins for several ligands was evaluated in vitro with a BiacoreTM instrument. Kd values were obtained by steady-state affinity fit due to the very rapid association and dissociation of the complex, which prevented accurate determination of kₒₙ and koff.

[1] = molecular target: B6; test: Biacore; steady-state affinity fit
Description: as §1

Activin A [2] = molecular target: T2, Activin A; test: Biacore; steady-state affinity fit
Description: as §1

[3] = molecular target: T3, Growth and Differentiation Factor-8 …; test: BiaCore; receptor-Fc captured by anti-hFc antibody, ligand injected
Description: (§2) Binding of certain ActRIIB-Fc proteins and GDF Traps to ligands was tested in a BiaCore™ assay.
(§3) The ActRIIB-Fc variants or wild-type protein were captured onto the system using an anti-hFc antibody. Ligands were injected and flowed over the captured receptor proteins.

[4] = molecular target: B6; test: as above
Description: as §2, §3

Activin A [5] = molecular target: T2, Activin A; test: BiaCore; ligand coupled, receptor flowed over; ligand coupled to the device, receptor flowed over (data from WO2006/012627)
[6] = molecular target: B6; test: BiaCore; ligand coupled, receptor flowed over; WT (64R) construct; ligand coupled to the device, receptor flowed over (data from WO2006/012627)
[7] = molecular target: B6; test: cell-based or functional assay
Activin A [8] = molecular target: T2, Activin A; test: cell-based or functional assay
Activin A [9] = molecular target: T2, Activin A; test: BiaCore; receptor-Fc captured by anti-hFc antibody, ligand injected
Description: as §2, §3

ActRIIB(20-134)-hFc [10] = molecular target: B5; test: Biacore; steady-state affinity fit
Description: as §1

[11] = molecular target: B3; test: BiaCore; ligand coupled, receptor flowed over; +15tail construct; ligand coupled to the device, receptor flowed over (data from WO2006/012627)
ActRIIB(20-134)-hFc [12] = molecular target: B5; test: BiaCore; receptor-Fc captured by anti-hFc antibody, ligand injected
Description: as §2, §3

Binder: B1
Kd (Activin B): 0.012 nM | Kd [1]: 0.031 nM | Kd (Activin A [2]): 0.018 nM

Binder: B2
Kd (Activin B): 0.788 nM | Kd [1]: 0.123 nM | Kd (Activin A [2]): 13.5 nM | Kd [3]: 2.15 nM | koff [3]: 0.00083 s⁻¹ | Kd [4]: 0.655 nM | koff [4]: 0.000439 s⁻¹

Binder: B3
Kd (Activin A [5]): ~26 nM

Binder: B4
Kd [6]: 86 nM

Binder: B5
Kd (Activin B): 0.012 nM | Kd (Activin A [2]): 0.016 nM | IC50 (ng/mL), A-204 reporter gene assay, conditioned media [7]: 45 ng/mL | IC50 (ng/mL), A-204 reporter gene assay, conditioned media (Activin A [8]): 22 ng/mL | Kd (Activin A [9]): 0.0268 nM | koff (Activin A [9]): 0.000159 s⁻¹ | kon (Activin A [9]): 5.94e+06 M⁻¹ s⁻¹

Binder: B6
Kd (ActRIIB(20-134)-hFc [10]): 0.036 nM | Kd [11]: 19 nM | Kd (ActRIIB(20-134)-hFc [12]): 0.0842 nM | koff (ActRIIB(20-134)-hFc [12]): 0.000113 s⁻¹ | kon (ActRIIB(20-134)-hFc [12]): 1.34e+06 M⁻¹ s⁻¹

Reference: patent US20160326228A1 (ACCELERON PHARMA, published 2016)
